Data on 2 molecules can be found in PMC8163800, “Extreme parsimony in ATP consumption by 20S complexes in the global disassembly of single SNARE complexes” (Nature Communications, 2021).

Series [1] deals with SNARE–αSNAP complex on vesicles (rat | bovine), P60881.
Substrate in series [2]: Nc1ncnc2c1ncn2[C@@H]1O[C@H](COP(=O)(O)OP(=O)(O)OP(=O)(O)O)[C@@H](O)[C@H]1O
In words: ATPase titration, phosphate release by MESG/PNP (ELIPA kit), Hill fit. It is filed as biochemical, Cricetulus griseus. To be noted: Hill coefficient 0.58 ± 0.09, 5 mM MgCl2, 50 mM HEPES pH 7.4, 50 mM NaCl, 37 °C.

B1: N-ethylmaleimide sensitive factor (NSF), wild-type hexamer, P18708 1-744 (enzyme)
chain: MAGRSMQAARCPTDELSLSNCAVVSEKDYQSGQHVIVRTSPNHKYIFTLRTHPSVVPGSVAFSLPQRKWAGLSIGQEIEVALYSFDKAKQCIGTMTIEIDFLQKKNIDSNPYDTDKMAAEFIQQFNNQAFSVGQQLVFSFNDKLFGLLVKDIEAMDPSILKGEPASGKRQKIEVGLVVGNSQVAFEKAENSSLNLIGKAKTKENRQSIINPDWNFEKMGIGGLDKEFSDIFRRAFASRVFPPEIVEQMGCKHVKGILLYGPPGCGKTLLARQIGKMLNAREPKVVNGPEILNKYVGESEANIRKLFADAEEEQRRLGANSGLHIIIFDEIDAICKQRGSMAGSTGVHDTVVNQLLSKIDGVEQLNNILVIGMTNRPDLIDEALLRPGRLEVKMEIGLPDEKGRLQILHIHTARMRGHQLLSADVDIKELAVETKNFSGAELEGLVRAAQSTAMNRHIKASTKVEVDMEKAESLQVTRGDFLASLENDIKPAFGTNQEDYASYIMNGIIKWGDPVTRVLDDGELLVQQTKNSDRTPLVSVLLEGPPHSGKTALAAKIAEESNFPFIKICSPDKMIGFSETAKCQAMKKIFDDAYKSQLSCVVVDDIERLLDYVPIGPRFSNLVLQALLVLLKKAPPQGRKLLIIGTTSRKDVLQEMEMLNAFSTTIHVPNIATGEQLLEALELLGNFKDKERTTIAQQVKGKKVWIGIKKLLMLIEMSLQMDPEYRVRKFLALLREEGASPLDFD
Turning to B1, in series [1], the rate of ATP hydrolysis of WT NSF hexamers with soluble SNARE complex (300 nM) and αSNAP (1 μM) against free NSF is 24 fold.

B2: free NSF (NSF hexamer) (Cricetulus griseus) (protein)
chain: MAGRSMQAARCPTDELSLSNCAVVSEKDYQSGQHVIVRTSPNHKYIFTLRTHPSVVPGSVAFSLPQRKWAGLSIGQEIEVALYSFDKAKQCIGTMTIEIDFLQKKNIDSNPYDTDKMAAEFIQQFNNQAFSVGQQLVFSFNDKLFGLLVKDIEAMDPSILKGEPASGKRQKIEVGLVVGNSQVAFEKAENSSLNLIGKAKTKENRQSIINPDWNFEKMGIGGLDKEFSDIFRRAFASRVFPPEIVEQMGCKHVKGILLYGPPGCGKTLLARQIGKMLNAREPKVVNGPEILNKYVGESEANIRKLFADAEEEQRRLGANSGLHIIIFDEIDAICKQRGSMAGSTGVHDTVVNQLLSKIDGVEQLNNILVIGMTNRPDLIDEALLRPGRLEVKMEIGLPDEKGRLQILHIHTARMRGHQLLSADVDIKELAVETKNFSGAELEGLVRAAQSTAMNRHIKASTKVEVDMEKAESLQVTRGDFLASLENDIKPAFGTNQEDYASYIMNGIIKWGDPVTRVLDDGELLVQQTKNSDRTPLVSVLLEGPPHSGKTALAAKIAEESNFPFIKICSPDKMIGFSETAKCQAMKKIFDDAYKSQLSCVVVDDIERLLDYVPIGPRFSNLVLQALLVLLKKAPPQGRKLLIIGTTSRKDVLQEMEMLNAFSTTIHVPNIATGEQLLEALELLGNFKDKERTTIAQQVKGKKVWIGIKKLLMLIEMSLQMDPEYRVRKFLALLREEGASPLDFD
notes: N-terminal His-tag cut by thrombin, pET28a
Take B2: the K0.5 in series [2] was 9 ± 2 µM.
